Patent US7067474B1, “Agents for treating human illnesses based on β-catenin, and the production and use thereof” (Max-Delbruck-Centrum fur Molekulare Medizin, priority 1998, dated 2006)
Structures can show the parent of a compound that is named as a salt. Where no end group is shown, it is not given here.

Tests used:
Format in all cases: binding
[1] = target: T1, LEF-1/β-catenin interaction (Homo sapiens, UniProt P35222); test: ELISA: inhibition of complex formation of LEF-1 and β-catenin; conditions: for inhibition of the interaction between LEF-1 and β-catenin (complex formation): synthetic peptides, 100 μM to 0.3 μM
T1 construct: made in house; host or cells: bacteria
T1 sequence (P35222 1-781): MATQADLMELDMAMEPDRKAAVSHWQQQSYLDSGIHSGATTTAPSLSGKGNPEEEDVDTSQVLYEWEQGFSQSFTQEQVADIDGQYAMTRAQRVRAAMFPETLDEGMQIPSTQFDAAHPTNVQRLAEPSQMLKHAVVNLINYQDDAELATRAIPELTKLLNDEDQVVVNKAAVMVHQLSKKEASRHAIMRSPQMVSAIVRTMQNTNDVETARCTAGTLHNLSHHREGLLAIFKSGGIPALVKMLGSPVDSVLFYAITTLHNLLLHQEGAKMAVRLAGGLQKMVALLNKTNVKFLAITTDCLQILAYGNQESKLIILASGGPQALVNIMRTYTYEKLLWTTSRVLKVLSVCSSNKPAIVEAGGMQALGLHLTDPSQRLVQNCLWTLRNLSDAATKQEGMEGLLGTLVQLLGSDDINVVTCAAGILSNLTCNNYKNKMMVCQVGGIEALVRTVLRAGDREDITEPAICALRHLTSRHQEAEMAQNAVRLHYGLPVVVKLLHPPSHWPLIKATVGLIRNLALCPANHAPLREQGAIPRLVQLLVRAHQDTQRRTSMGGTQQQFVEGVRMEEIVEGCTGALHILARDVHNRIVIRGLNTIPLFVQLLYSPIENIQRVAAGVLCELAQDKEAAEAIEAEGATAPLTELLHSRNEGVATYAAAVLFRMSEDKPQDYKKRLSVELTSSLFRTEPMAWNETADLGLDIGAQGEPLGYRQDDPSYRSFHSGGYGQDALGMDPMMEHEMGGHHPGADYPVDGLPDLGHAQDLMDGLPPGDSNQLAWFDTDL
Source text: Both proteins were produced in bacteria recombinantly with N-terminal histidine sequences, purified by means of nickel chromatography for quantifying the inhibition of the LEF-1/β-catenin interaction by synthetic peptides and (Behrens et al. 1996). The peptides were produced by the company Biosyntan with the aid of a PSSM-8 automaton (Shimadzu, Japan) applying the Fmoc/But strategy (E. Atherton and R. C. Sheppard. 1989 IRL Press. Oxford: “Solid phase peptide synthesis—a practical approach”). Approx. 50 ng of LFF-1 were absorbed in the wells of ELISA plates for 90 minutes at room temperature. Subsequently, the wells were covered with 5% dry milk powder in PBS for 16 hours at 4° C. All further steps were carried out at room temperature in PBS with 50 mM Tris HCl (pH 7.5). After washing the wells with PBS the peptide dilutions were added. The incubation with 50–100 ng of β-catenin was carried out for 10 minutes in the presence of […] BSA. The complex formation of LEF-1 and β-catenin was detected by the antibody PA2 against the carboxy terminal area of β-catenin (Huelsken et al. 1994). PA2 was added in a standard dilution of 1:5000 in 3% of dry milk powder in PBS for 10 minutes. After washing the wells with PBS a quantification was carried out by detection antibodies conjugated by peroxidase (1: 2500 in 3% of dry milk powder in PBS, Dianova) and the conversion of o-phenylenediamine was determined by photometric measurement at […]. The peptides were used in concentrations of 100 μM to 0.3 μM. To check the specificity of the inhibition of the LEF-1/β-catenin interaction β-catenin was absorbed in the wells and detected by means of the same antibodies in the presence and absence of the peptides (FIGS. 2 and 3).
For a mutation analysis of the peptides the indicated amino acids were substituted by alanine during the synthesis. The inhibition of the complex formation of β-catenin and LEF-1 was quantified as has been already described (FIG. 2).

LEF-1 = target: T2, LEF-1 (Mus musculus, UniProt P27782); test: yeast 2-hybrid: interaction of β-catenin mutants with LEF-1
T2 construct: the cDNA of LEF-1 for the amino acids 1–99; expressed in transfected cells; host or cells: yeast (two-hybrid, Matchmaker, Clontech)
Protocol: (§1) The mutagenesis of β-catenin in the armadillo repeats 3–8 was carried out by means of the “mutagenesis kit” of the company Clontech according to the producer's record and the mutants were checked by sequencing (FIG. 5). In all mutants the original amino acid was substituted by alanine. For analyzing the interactions the cDNA of human β-catenin (armadillo repeat 3 up to the C-terminal end of the protein) coding for the amino acids Leu218–Leu7 μl or its mutants was cloned into the fusion vector for the activation domain of Gal-4 (pGAD424, Clontech). The cDNA for the binding domains of the interaction partners was cloned into the Lex-A fusion vector BTM 116. To this end, the cDNA of LEF-1 for the amino acids 1–99, conductin for the amino acids Ala342–ARG465; of human APC for the amino acids His1012–Glu1215 (APC 15 amino acid repeats) and for the amino acids Ser1259Asp 1400 (APC 20 amino acid repeats) and E-cadherin for the amino acids Gin773–Asp884 (cytoplasmatic domain) were amplified with the respective primers PCR. The interaction of the Lex-A hybrids with β-catenin and its mutants was quantified by means of the β-galactosidase reporter activity in the yeast 2-hybrid system (report: “Matchmaker”. Clontech) (Tab. 2 and FIG. 6).

[2] = target: T3, APC (15 amino acid repeats) (Homo sapiens, UniProt P25054); test: yeast 2-hybrid: interaction of β-catenin mutants with APC 15 amino acid repeats; conditions: for Interaction With APC-15, share of wild type β-catenin interaction: yeast 2-hybrid, alanine mutants
T3 construct: of human APC for the amino acids His1012–Glu1215 (APC 15 amino acid repeats); expressed in transfected cells; host or cells: yeast (two-hybrid, Matchmaker, Clontech)
T3 sequence (P25054 1006-1209 limits assumed): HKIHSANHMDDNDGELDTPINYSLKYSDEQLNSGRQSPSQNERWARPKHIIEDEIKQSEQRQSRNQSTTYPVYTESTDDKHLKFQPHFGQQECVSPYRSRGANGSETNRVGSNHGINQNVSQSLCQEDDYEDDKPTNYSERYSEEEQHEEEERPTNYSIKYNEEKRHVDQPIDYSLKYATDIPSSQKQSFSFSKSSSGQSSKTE
Protocol: as §1

E-cadherin = target: T4, E-cadherin (Mus musculus, UniProt P09803); test: yeast 2-hybrid: interaction of β-catenin mutants with E-cadherin; conditions: alanine mutants
T4 construct: E-cadherin for the amino acids Gin773–Asp884 (cytoplasmatic domain); expressed in transfected cells; host or cells: yeast (two-hybrid, Matchmaker, Clontech)
Protocol: as §1

conductin = target: T5, conductin (Mus musculus, UniProt O88566); test: yeast 2-hybrid: interaction of β-catenin mutants with conductin; conditions: yeast 2-hybrid, alanine mutants
T5 construct: conductin for the amino acids Ala342–ARG465; expressed in transfected cells; host or cells: yeast (two-hybrid, Matchmaker, Clontech)
Protocol: as §1

[3] = target: T6, APC (20 amino acid repeats) (Homo sapiens, UniProt P25054); test: yeast 2-hybrid: interaction of β-catenin mutants with APC 20 amino acid repeats; conditions: yeast 2-hybrid, alanine mutants
T6 construct: for the amino acids Ser1259Asp 1400 (APC 20 amino acid repeats); expressed in transfected cells; host or cells: yeast (two-hybrid, Matchmaker, Clontech)
T6 sequence (P25054 1253-1394 limits assumed): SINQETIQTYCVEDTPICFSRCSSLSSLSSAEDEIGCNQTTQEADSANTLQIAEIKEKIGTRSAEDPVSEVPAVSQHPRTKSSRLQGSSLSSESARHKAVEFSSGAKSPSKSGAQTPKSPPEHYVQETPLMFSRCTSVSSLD
Protocol: as §1

T5 sequence (O88566 343-465 limits assumed): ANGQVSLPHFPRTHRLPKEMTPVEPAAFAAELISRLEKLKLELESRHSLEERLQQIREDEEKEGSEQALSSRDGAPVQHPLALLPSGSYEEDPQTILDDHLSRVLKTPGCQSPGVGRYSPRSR
T4 sequence (P09803 773-884): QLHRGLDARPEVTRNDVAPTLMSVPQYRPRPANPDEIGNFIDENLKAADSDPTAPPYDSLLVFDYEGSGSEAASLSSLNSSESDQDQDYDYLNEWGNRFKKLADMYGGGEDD
T2 sequence (P27782 1-99): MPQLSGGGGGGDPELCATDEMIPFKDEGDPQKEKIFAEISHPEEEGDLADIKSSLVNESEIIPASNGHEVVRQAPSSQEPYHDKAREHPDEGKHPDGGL

ELCATDEMIPFKDE [14–27]
inhibition of the interaction between LEF-1 and β-catenin (complex formation) [1]: inhibit specifically

Asp15: synthetic hTCF-4 N-terminal peptide with Asp15 substituted by alanine (GGDDLGANAELISFKDEGEQEEK)
inhibition of the interaction between LEF-1 and β-catenin (complex formation) [1]: stopping the inhibition

Ile35–Val56: peptide of LEF-1 with the amino acids Ile35–Val56 (IFAEISHPEEEGDLADIKSSLV)
inhibition of the interaction between LEF-1 and β-catenin (complex formation) [1]: does not inhibit complex formation

Asp22: synthetic hTCF-4 N-terminal peptide with Asp22 substituted by alanine (GGDDLGANDELISFKAEGEQEEK)
inhibition of the interaction between LEF-1 and β-catenin (complex formation) [1]: stopping the inhibition

Lys21: synthetic hTCF-4 N-terminal peptide with Lys21 substituted (GGDDLGANDELISFADEGEQEEK)
inhibition of the interaction between LEF-1 and β-catenin (complex formation) [1]: has the same effect

Phe20: synthetic hTCF-4 N-terminal peptide with Phe20 substituted (GGDDLGANDELISAKDEGEQEEK)
inhibition of the interaction between LEF-1 and β-catenin (complex formation) [1]: has the same effect

Cn1nnnc1SCC1=C(C(=O)O)N2C(=O)C(NC(=O)[C@@H](O)c3ccccc3)C2SC1 (stereo partly shown) [cefamandole, CEFAMANDOLESODIUM SALT, reference compound]
IC50 ([1]; recombinant purified proteins, 15–250 μM, FIG. 9, read-out: IC50, reduction of the complex formation of LEF-1 and β-catenin): 25 µM

Asp10: synthetic hTCF-4 N-terminal peptide with Asp10 substituted by alanine (GGDALGANDELISFKDEGEQEEK)
inhibition of the interaction between LEF-1 and β-catenin (complex formation) [1]: stopping the inhibition

GDPELCATDEMIPFKDEGDPQKEK [11–34]
inhibition of the interaction between LEF-1 and β-catenin (complex formation) [1]: inhibit specifically

B1: Lys 435: human β-catenin mutant, Lys 435 substituted by alanine (arm 8) (protein)
chain: LHNLSHHREGLLAIFKSGGIPALVKMLGSPVDSVLFYAITTLHNLLLHQEGAKMAVRLAGGLQKMVALLNKTNVKFLAITTDCLQILAYGNQESKLIILASGGPQALVNIMRTYTYEKLLWTTSRVLKVLSVCSSNKPAIVEAGGMQALGLHLTDPSQRLVQNCLWTLRNLSDAATKQEGMEGLLGTLVQLLGSDDINVVTCAAGILSNLTCNNYKNAMMVCQVGGIEALVRTVLRAGDREDITEPAICALRHLTSRHQEAEMAQNAVRLHYGLPVVVKLLHPPSHWPLIKATVGLIRNLALCPANHAPLREQGAIPRLVQLLVRAHQDTQRRTSMGGTQQQFVEGVRMEEIVEGCTGALHILARDVHNRIVIRGLNTIPLFVQLLYSPIENIQRVAAGVLCELAQDKEAAEAIEAEGATAPLTELLHSRNEGVATYAAAVLFRMSEDKPQDYKKRLSVELTSSLFRTEPMAWNETADLGLDIGAQGEPLGYRQDDPSYRSFHSGGYGQDALGMDPMMEHEMGGHHPGADYPVDGLPDLGHAQDLMDGLPPGDSNQLAWFDTDL
modifications: left off: large carriers; small tags and cut ends
Interaction With LEF-1, share of wild type β-catenin interaction (LEF-1; yeast 2-hybrid, alanine mutants): — (Interactions marked by — correspond to 60–100% of the wild type interaction) | interaction with LEF-1/TCF-4 (LEF-1; β-catenin mutation, in words): blocking the interaction | Interaction With APC-15, share of wild type β-catenin interaction [2]: 30% | Interaction With E-Cadherin, share of wild type β-catenin interaction (E-cadherin): — (Interactions marked by — correspond to 60–100% of the wild type interaction) | Interaction With Conductin, share of wild type β-catenin interaction (conductin): 42% | Interaction With APC-20, share of wild type β-catenin interaction [3]: — (Interactions marked by — correspond to 60–100% of the wild type interaction)

B2: Arg 386: human β-catenin mutant, Arg 386 substituted by alanine (arm 6) (protein)
chain: LHNLSHHREGLLAIFKSGGIPALVKMLGSPVDSVLFYAITTLHNLLLHQEGAKMAVRLAGGLQKMVALLNKTNVKFLAITTDCLQILAYGNQESKLIILASGGPQALVNIMRTYTYEKLLWTTSRVLKVLSVCSSNKPAIVEAGGMQALGLHLTDPSQRLVQNCLWTLANLSDAATKQEGMEGLLGTLVQLLGSDDINVVTCAAGILSNLTCNNYKNKMMVCQVGGIEALVRTVLRAGDREDITEPAICALRHLTSRHQEAEMAQNAVRLHYGLPVVVKLLHPPSHWPLIKATVGLIRNLALCPANHAPLREQGAIPRLVQLLVRAHQDTQRRTSMGGTQQQFVEGVRMEEIVEGCTGALHILARDVHNRIVIRGLNTIPLFVQLLYSPIENIQRVAAGVLCELAQDKEAAEAIEAEGATAPLTELLHSRNEGVATYAAAVLFRMSEDKPQDYKKRLSVELTSSLFRTEPMAWNETADLGLDIGAQGEPLGYRQDDPSYRSFHSGGYGQDALGMDPMMEHEMGGHHPGADYPVDGLPDLGHAQDLMDGLPPGDSNQLAWFDTDL
modifications: left off: large carriers; small tags and cut ends
Interaction With APC-15, share of wild type β-catenin interaction [2]: 12% | interaction with APC 15aa ([2]; β-catenin mutation, in words): no interaction with APC 15aa | Interaction With E-Cadherin, share of wild type β-catenin interaction (E-cadherin): — (Interactions marked by — correspond to 60–100% of the wild type interaction) | Interaction With Conductin, share of wild type β-catenin interaction (conductin): 45%
